How the values were obtained:
Details in all cases: remark: other sources report otherwise
[1] = molecular target: purified HLA-B*0702 (human); experiment: competition radioimmunoassay on purified HLA, radiolabeled standard peptide
[2] = molecular target: purified HLA-B*0801 (human); experiment: as above
[3] = molecular target: purified HLA-B*0702 (human); experiment: competition solid-phase radioimmunoassay on purified HLA-B7, radiolabeled standard peptide
[4] = molecular target: purified HLA-B*3501 (human); experiment: competition radioimmunoassay on purified HLA, radiolabeled standard peptide
[5] = molecular target: purified HLA-B*5301 (human); experiment: as above
[6] = molecular target: HLA-B*0702 on T2-B7 cells (human); experiment: MHC stabilization assay on T2-B7 cells (flow cytometry), relative to a reference peptide

| Binder | IC50 [1] [nM] | IC50 [2] [nM] | IC50 [3] [nM] | IC50 [4] [nM] | IC50 [5] [nM] | RA (relative avidity) [6] |
| --- | --- | --- | --- | --- | --- | --- |
| DPRRLVQLL [hTRT peptide p444 (…)] | 239 | 217 | 239 |  |  |  |
| RPSFLLSSL [hTRT peptide p342 (…)] |  | 37 |  | 1020 | 2200 |  |
| RPAEEATSL [hTRT peptide p277 (…)] |  |  |  |  |  | 4.7 |

Reference: US20090202499A1, “Human Telomerase Reverse Transcriptase Peptides” (priority 2006, published 2009)
